Laboratory results as given in patent US20190282663A1 (KEROS THERAPEUTICS, published 2019).
Where a chain is given by its changes, count along the chain named.

B1: ActRIIb (SEQ ID NO: 74) (receptor)
chain: GRGEAETRECIYYNANWELERTNQSGLERCEGEQDKRLHCYASWRNSSGTIELVKKGCWLDDFNCYDRQECVATEENPQVYFCCCEGNFCNERFTHLPEAGGPEVTYEPPPTAPT
notes: also called Human ActRIIb, extracellular portion; not shown: Carrier and linker
B2: ActRIIa/bmax2 variant (SEQ ID NO: 71) (receptor)
chain: GAILGRSETQECLFYNANWELERTNQTGVERCEGEKDKRLHCYATWRNISGSIEIVKKGCWLDDFNCYDRTDCVETEENPQVYFCCCEGNMCNEKFSYFPEMEVTQPTSNP
notes: not shown: Carrier and linker
B3: ActRIIa/bmax3 variant (SEQ ID NO: 72) (receptor)
chain: GAILGRSETQECLFYNANWELERTNQTGVERCEGEKDKRLHCYATWRNISGSIEIVKKGCWLDDFNCYDRTDCVETEENPQVYFCCCEGNMCNEKFSYFPEMEVTQPTSNPVTPK
notes: not shown: Carrier and linker
B4: ActRIIa/bΔ9 variant (SEQ ID NO: 58) (receptor)
chain: GAILGRSETQECLFYNANWELDRTNQTGVERCEGEKDKRLHCYATWRNISGSIEIVKKGCWLDDFNCYDRTDCVETKENPQVYFCCCEGNMCNEKFSYFPEMEVTQPTS
notes: Engineered extracellular ActRIIa variant; not shown: Fusion partner and its linker
B5: ActRIIa/b variant (SEQ ID NO: 69) (receptor)
chain: B4 chain with D22E, K77E
notes: Engineered extracellular ActRIIa variant; not shown: Carrier and linker
B6: ActRIIa/bΔ9 min variant (SEQ ID NO: 6) (receptor)
chain: B4 chain with R31P, Y43F, R47K, F65I
notes: as for B4
B7: ActRIIa/bΔ9m4 variant (SEQ ID NO: 44) (receptor)
chain: B4 chain with R31P
notes: as for B5
B8: ActRIIa/bΔ9m3 variant (SEQ ID NO: 41) (receptor)
chain: B4 chain with Y43F
notes: as for B4
B9: ActRIIa/bΔ9m2 variant (SEQ ID NO: 38) (receptor)
chain: B4 chain with F65I
notes: as for B4
B10: ActRIIa/bmax1 variant (SEQ ID NO: 70) (receptor)
chain: B4 chain with F14Y, D22E, K36Q, K77E
notes: as for B5
B11: ActRIIa/b+ variant (SEQ ID NO: 150) (receptor)
chain: B4 chain with D22E, K57A, K77E
notes: not shown: Fusion partner and its linker
B12: BMP-9 (ligand, UniProt Q9UK05 320-429, looked up)
chain: SAGAGSHCQKTSLRVNFEDIGWDSWIIAPKEYEAYECKGGCFFPLADDVTPTKHAIVQTLVHLKFPTKVGKACCVPTKLSPISVLYKDDMGVPTLKYHYEGMSVAECGCR
notes: also called bone morphogenetic protein 9
B13: growth differentiation factor 11 (GDF11) (ligand, UniProt O95390 299-407, looked up)
chain: NLGLDCDEHSSESRCCRYPLTVDFEAFGWDWIIAPKRYKANYCSGQCEYMFMQKYPHTHLVQQANPRGSAGPCCTPTKMSPINMLYFNDKQQIIYGKIPGMVVDRCGCS
B14: ActRIIb/a variant (SEQ ID NO: 149) (receptor)
chain: GRGEAETRECIFYNANWEKDRTNQSGLEPCYGDQDKRRHCFASWKNSSGTIELVKQGCWLDDINCYDRQECVAKKDSPEVYFCCCEGNFCNERFTHLPEAGGPEVTYEPPPTAPT
notes: Engineered extracellular ActRIIb variant; also called extracellular ActRIIb variant; not shown: Carrier and linker

Each binder was assayed against T1, Activin A (UniProt P08476 311-426) (assay: SPR (Biacore 3000), receptor captured on chip, ligand in solution).
T1 sequence (looked up): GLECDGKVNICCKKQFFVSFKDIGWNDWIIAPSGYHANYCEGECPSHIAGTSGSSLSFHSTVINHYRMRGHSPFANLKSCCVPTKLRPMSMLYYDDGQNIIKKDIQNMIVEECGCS
With B1 the Kd was 0.063 nM. Work on B2 yielded a Kd of 0.135 nM. In the case of B3, the Kd is reported as 0.089 nM. Work on B4 yielded a Kd of 0.213 nM. In the case of B5, the Kd is reported as 0.542 nM. For B6, the Kd was 0.31 nM. Work on B7 yielded a Kd of 0.375 nM. For B8, the Kd was 0.071 nM. B9 was tested, and the Kd was 0.17 nM. B10 gave a Kd of 0.232 nM. B11 was tested, and the Kd was 0.242 nM.

What follows are binders tested against T2, Activin B (UniProt P09529 293-407) in the same assay as above.
T2 sequence (looked up): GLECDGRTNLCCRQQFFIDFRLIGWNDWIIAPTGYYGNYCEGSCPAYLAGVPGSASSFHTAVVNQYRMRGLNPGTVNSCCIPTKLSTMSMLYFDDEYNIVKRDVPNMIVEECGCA
For B1, the Kd was 0.023 nM. B2 showed a Kd of 0.039 nM. In the case of B3, the Kd is reported as 0.043 nM. For B4, the Kd was 0.0123 nM. Binder B5 has a Kd of 0.103 nM. With B6 the Kd was 0.088 nM. Work on B7 yielded a Kd of 0.254 nM. B8 gave a Kd of 0.0725 nM. For B9, the Kd was 0.104 nM. Work on B10 yielded a Kd of 0.097 nM. B11 showed a Kd of 0.282 nM.

The binders below were run against B13 in the same assay as above.
B2 gave a Kd of 0.113 nM. B3 gave a Kd of 0.214 nM. For B4, the Kd was 0.115 nM. In the case of B5, the Kd is reported as 0.186 nM. Work on B6 yielded a Kd of 0.114 nM. For B7, the Kd was 0.394 nM. B8 showed a Kd of 0.117 nM. In the case of B9, the Kd is reported as 0.222 nM. B10 was tested, and the Kd was 0.236 nM.

Each binder was assayed against B12 in the same assay as above.
B2 showed a Kd of 5 nM. B3 showed a Kd of 3.3 nM. Work on B4 yielded a Kd of 10 nM. For B5, the Kd was 4 nM. B6 gave a Kd of 17 nM. With B7 the Kd was 14 to 20 nM. For B8, the Kd was 1.2 nM. B9 was tested, and the Kd was 13 to 18 nM. Binder B10 has a Kd of 5.6 nM. Binder B11 has a Kd of 26 nM.

Each binder was assayed against B1 in the same assay as above.
In the case of B12, the Kd is reported as 0.278 nM. B13 showed a Kd of 0.115 nM.

The binders below were run against T1, Activin A (assay: SPR (Biacore 3000), receptor captured on chip by anti-mouse antibody, ligand in solution).
B14: no binding.

The binders below were run against T2, Activin B in the same assay as above.
B14: no binding.

What follows are binders tested against B13 in the same assay as above.
B14: no binding.
